Patent US20140087995A1 (published 2014)
Numbered stars: 1 amine (or outer) side, 2 acyl side, 3 side chain; on linkers, the order of the positions; unused ones are H or OH. Bridge positions count the residues as written; N and C are the ends. Ends that are not written are not given here. * marks the point of attachment. C20 diacid = O=C(O)CCCCCCCCCCCCCCCCCCC(=O)*; γGlu = O=C(O)[C@H](CCC(=O)[*:2])N[*:1]

T1: human amylin receptor (amylin 3(a) receptor: human calcitonin receptor plus RAMP-3) (human, UniProt P30988 25-474; O60896 24-148)
T1 construct: whole, on cells; functional assay used the whole cells; also called hAmylin-R; hAmylinR
T1 sequence (looked up) 1: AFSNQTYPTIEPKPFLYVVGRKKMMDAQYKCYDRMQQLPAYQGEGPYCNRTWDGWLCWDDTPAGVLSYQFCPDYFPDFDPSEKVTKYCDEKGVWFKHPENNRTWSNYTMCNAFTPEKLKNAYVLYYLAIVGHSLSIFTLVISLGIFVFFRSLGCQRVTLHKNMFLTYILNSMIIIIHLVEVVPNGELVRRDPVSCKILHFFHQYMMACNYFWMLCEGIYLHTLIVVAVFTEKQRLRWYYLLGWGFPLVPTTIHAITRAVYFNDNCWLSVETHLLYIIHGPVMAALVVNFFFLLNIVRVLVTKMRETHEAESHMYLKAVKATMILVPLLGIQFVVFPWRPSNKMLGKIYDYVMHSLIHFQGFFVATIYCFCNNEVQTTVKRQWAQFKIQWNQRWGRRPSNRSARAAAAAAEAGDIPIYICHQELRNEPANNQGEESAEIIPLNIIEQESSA
T1 sequence (looked up) 2: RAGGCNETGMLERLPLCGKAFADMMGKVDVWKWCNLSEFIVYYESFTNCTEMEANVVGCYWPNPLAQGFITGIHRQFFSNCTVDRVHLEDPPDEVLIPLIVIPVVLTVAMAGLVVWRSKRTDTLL

T2: human calcitonin receptor (human, UniProt P30988 25-474)
T2 sequence (looked up): T1 sequence (looked up) 1

T3: human amylin receptor (amylin 3(a) receptor: human calcitonin receptor co-expressed with RAMP-3) (human, UniProt P30988 25-474; O60896 24-148, limits assumed)
T3 construct: whole, on cells; Used as cell membranes prepared from the Amylin 3(a)/CRE-luc BHK cells (Assay V); also called hAmylin-R; hAmylinR
T3 sequence (looked up) 1: T1 sequence (looked up) 1
T3 sequence (looked up) 2: T1 sequence (looked up) 2

T4: rat calcitonin receptor (rat, UniProt P32214 25-516)
T4 construct: whole, on cells; In cell membranes prepared from transiently transfected BHK tk'ts 13 cells (Assay VIII); also called rCTR; rat calcitonin (a) receptor
T4 sequence (looked up): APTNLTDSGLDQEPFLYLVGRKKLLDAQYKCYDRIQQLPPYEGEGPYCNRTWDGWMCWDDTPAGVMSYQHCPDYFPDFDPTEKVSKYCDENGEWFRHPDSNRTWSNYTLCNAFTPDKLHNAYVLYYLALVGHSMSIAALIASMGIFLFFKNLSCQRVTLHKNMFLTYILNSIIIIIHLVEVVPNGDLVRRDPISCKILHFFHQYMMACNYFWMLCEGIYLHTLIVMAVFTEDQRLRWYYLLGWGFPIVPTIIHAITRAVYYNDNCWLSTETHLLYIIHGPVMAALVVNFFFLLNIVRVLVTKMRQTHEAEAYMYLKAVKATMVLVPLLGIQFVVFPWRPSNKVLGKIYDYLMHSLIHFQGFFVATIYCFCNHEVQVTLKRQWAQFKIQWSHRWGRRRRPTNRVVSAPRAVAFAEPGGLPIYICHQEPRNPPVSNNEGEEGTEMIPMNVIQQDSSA

B1: N^-1-[(4S)-4-carboxy-4-(19-carboxynonadecanoylamino)butanoyl]-Gly[Arg1,Arg17,Pro21,Pro27,His35]-h-amylin (peptide)
peptide: {C20 diacid-γGlu}-GRCNTATCATQRLANFLRHSSPNFGAIPSSTNVGSHTY-NH2
modifications: disulfide 3-8
SMILES: CC[C@H](C)[C@H](NC(=O)[C@H](C)NC(=O)CNC(=O)[C@H](Cc1ccccc1)NC(=O)[C@H](CC(N)=O)NC(=O)[C@@H]1CCCN1C(=O)[C@H](CO)NC(=O)[C@H](CO)NC(=O)[C@H](Cc1c[nH]cn1)NC(=O)[C@H](CCCNC(=N)N)NC(=O)[C@H](CC(C)C)NC(=O)[C@H](Cc1ccccc1)NC(=O)[C@H](CC(N)=O)NC(=O)[C@H](C)NC(=O)[C@H](CC(C)C)NC(=O)[C@H](CCCNC(=N)N)NC(=O)[C@H](CCC(N)=O)NC(=O)[C@@H](NC(=O)[C@H](C)NC(=O)[C@@H]1CSSC[C@H](NC(=O)[C@H](CCCNC(=N)N)NC(=O)CNC(=O)CC[C@H](NC(=O)CCCCCCCCCCCCCCCCCCC(=O)O)C(=O)O)C(=O)N[C@@H](CC(N)=O)C(=O)N[C@@H]([C@@H](C)O)C(=O)N[C@@H](C)C(=O)N[C@@H]([C@@H](C)O)C(=O)N1)[C@@H](C)O)C(=O)N1CCC[C@H]1C(=O)N[C@@H](CO)C(=O)N[C@@H](CO)C(=O)N[C@H](C(=O)N[C@@H](CC(N)=O)C(=O)N[C@H](C(=O)NCC(=O)N[C@@H](CO)C(=O)N[C@@H](Cc1c[nH]cn1)C(=O)N[C@H](C(=O)N[C@@H](Cc1ccc(O)cc1)C(N)=O)[C@@H](C)O)C(C)C)[C@@H](C)O
notes: N-terminal extension by Gly at position -1; also called compound 47
B2: N^-1-[(4S)-4-carboxy-4-(19-carboxynonadecanoylamino)butanoyl]-Gly[Arg1,His14,Arg17,Pro21,Pro27,Pro34]-h-amylin (peptide)
peptide: {C20 diacid-γGlu}-GRCNTATCATQRLAHFLRHSSPNFGAIPSSTNVGPNTY-NH2
modifications: disulfide 3-8
SMILES: CC[C@H](C)[C@H](NC(=O)[C@H](C)NC(=O)CNC(=O)[C@H](Cc1ccccc1)NC(=O)[C@H](CC(N)=O)NC(=O)[C@@H]1CCCN1C(=O)[C@H](CO)NC(=O)[C@H](CO)NC(=O)[C@H](Cc1c[nH]cn1)NC(=O)[C@H](CCCNC(=N)N)NC(=O)[C@H](CC(C)C)NC(=O)[C@H](Cc1ccccc1)NC(=O)[C@H](Cc1c[nH]cn1)NC(=O)[C@H](C)NC(=O)[C@H](CC(C)C)NC(=O)[C@H](CCCNC(=N)N)NC(=O)[C@H](CCC(N)=O)NC(=O)[C@@H](NC(=O)[C@H](C)NC(=O)[C@@H]1CSSC[C@H](NC(=O)[C@H](CCCNC(=N)N)NC(=O)CNC(=O)CC[C@H](NC(=O)CCCCCCCCCCCCCCCCCCC(=O)O)C(=O)O)C(=O)N[C@@H](CC(N)=O)C(=O)N[C@@H]([C@@H](C)O)C(=O)N[C@@H](C)C(=O)N[C@@H]([C@@H](C)O)C(=O)N1)[C@@H](C)O)C(=O)N1CCC[C@H]1C(=O)N[C@@H](CO)C(=O)N[C@@H](CO)C(=O)N[C@H](C(=O)N[C@@H](CC(N)=O)C(=O)N[C@H](C(=O)NCC(=O)N1CCC[C@H]1C(=O)N[C@@H](CC(N)=O)C(=O)N[C@H](C(=O)N[C@@H](Cc1ccc(O)cc1)C(N)=O)[C@@H](C)O)C(C)C)[C@@H](C)O
B3: N^α1-[(4S)-4-carboxy-4-(19-carboxynonadecanoylamino)butanoyl]-[Glu14,Arg17,Pro21,Pro27,His35]-h-amylin (peptide)
peptide: {C20 diacid-γGlu}-KCNTATCATQRLAEFLRHSSPNFGAIPSSTNVGSHTY-NH2
modifications: disulfide 2-7
SMILES: CC[C@H](C)[C@H](NC(=O)[C@H](C)NC(=O)CNC(=O)[C@H](Cc1ccccc1)NC(=O)[C@H](CC(N)=O)NC(=O)[C@@H]1CCCN1C(=O)[C@H](CO)NC(=O)[C@H](CO)NC(=O)[C@H](Cc1c[nH]cn1)NC(=O)[C@H](CCCNC(=N)N)NC(=O)[C@H](CC(C)C)NC(=O)[C@H](Cc1ccccc1)NC(=O)[C@H](CCC(=O)O)NC(=O)[C@H](C)NC(=O)[C@H](CC(C)C)NC(=O)[C@H](CCCNC(=N)N)NC(=O)[C@H](CCC(N)=O)NC(=O)[C@@H](NC(=O)[C@H](C)NC(=O)[C@@H]1CSSC[C@H](NC(=O)[C@H](CCCCN)NC(=O)CC[C@H](NC(=O)CCCCCCCCCCCCCCCCCCC(=O)O)C(=O)O)C(=O)N[C@@H](CC(N)=O)C(=O)N[C@@H]([C@@H](C)O)C(=O)N[C@@H](C)C(=O)N[C@@H]([C@@H](C)O)C(=O)N1)[C@@H](C)O)C(=O)N1CCC[C@H]1C(=O)N[C@@H](CO)C(=O)N[C@@H](CO)C(=O)N[C@H](C(=O)N[C@@H](CC(N)=O)C(=O)N[C@H](C(=O)NCC(=O)N[C@@H](CO)C(=O)N[C@@H](Cc1c[nH]cn1)C(=O)N[C@H](C(=O)N[C@@H](Cc1ccc(O)cc1)C(N)=O)[C@@H](C)O)C(C)C)[C@@H](C)O
notes: also called compound 18

Legend:
[1] = target: T1, human amylin receptor (amylin 3(a) …); assay: SPA competition, displacement of 125I-rat amylin from membranes of BHK cells with human calcitonin receptor + RAMP-3 (Assay V)
Method: The binding assay was performed using scintillation proximity assay (SPA) beads (RPNQ0001) from PerkinElmer and cell membranes from the Amylin 3(a)/CRE-luc cells (as described in Assay (II)) were used. Membranes were prepared in the following way; the cells were rinsed with PBS and incubated with Versene for approximately 5 min before harvesting. The cells were flushed with PBS and the cell-suspension was centrifuged for 5 min at 1000 rpm. Cells were homogenized (ultrathurrax) in a buffer containing 20 mM Na-HEPES and 10 mM EDTA (pH 7.4) and centrifuged at 20.000 rpm for 15 min. The resulting pellet was resuspended, homogenized and centrifuged (20.000 rpm, 15 min) in a buffer containing 20 mM Na-HEPES and 0.1 mM EDTA (pH 7.4, buffer 2). The resulting pellet was resuspended in buffer 2 and protein concentration was measured (BCA protein Assay, Pierce). The homogenate was kept cold during the whole procedure. The membranes were kept at −80° C. until use. The assay was performed in a 384 well Optiplate (PerkinElmer) in a total volume of 40 ul. Membranes were mixed with SPA beads. Final concentration of membranes 35 ng/μL final and SPA beads was 0.05 mg/well. Test-compounds were dissolved in DMSO and further diluted in assay buffer (50 mM Hepes, pH 7.4, 1 mM CaCl2, 5 mM MgCl₂, 0.1% OA and 0.02% Tween20). […] The final mixture was incubated with shaking at 400 rpm for 120 min at 25° C. prior to centrifugation (1500 rpm, 10 min). Samples were analyzed on TopCounter™ (Packard). The IC₅₀ was calculated using (one site binding competition analysis) GraphPad Prism5 as a measure of receptor affinity.

[2] = target: T2, human calcitonin receptor; assay: cell-based or functional assay
[3] = target: T1, human amylin receptor (amylin 3(a) …); assay: cell-based or functional assay
[4] = target: T3, human amylin receptor (amylin 3(a) …); assay: SPA displacement of 125I-rat amylin, hAmylin 3(a) receptor membranes
In short: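 One-site competition analysis of SPA counts yielded IC₅₀ as a measure of affinity. Membranes were at 35 ng/μL final; incubation was 120 min at 25° C, pH 7.4.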

[5] = target: T4, rat calcitonin receptor; assay: SPA competition binding, displacement of 125I-Calcitonin from membranes of BHK tk'ts 13 cells with rat calcitonin receptor (Assay VIII)

| Binder | IC50 [1] | hCTR funct. EC50 (pM) [2] | Ratio hCT/hAmylin funct. [3] | hAmylin-R funct. EC50 (pM) [3] | IC50 [4] | IC50 [5] |
| --- | --- | --- | --- | --- | --- | --- |
| B1 | 0.344 nM | 1320 pM | 6 | 222 pM |  |  |
| {C20 diacid-γGlu}-GRCNTATCATQRLAAFLRHSSPNFGAIPSSTNVGPNTY-NH2 (disulfide 3-8) |  |  |  |  | 0.114 nM |  |
| B2 |  |  |  |  | 0.217 nM |  |
| B3 | 0.554 nM | 742 pM | 4.8 | 154 pM |  |  |
| KCNTATCATQRLADFLRHSSPNFGAIPSSTNVGSRTY-NH2 (disulfide 2-7) [[Asp14,Arg17,Pro21,Pro27,Arg35]-h-amylin] |  |  |  |  |  | 30.9 nM |
